Ka and Kd data for one molecule are collected here from article PMC9398005.

The target of assay [1] is Drosophila Su(H) K132M (98-523) (Drosophila) (UniProt P28159). The assay can be described thus: ITC; RAM peptide, Hairless or SHARP in the syringe, Su(H) or Rbpj in the cell; 50 mM sodium phosphate, 150 mM sodium chloride; 20 injections of 14 uL; triplicate; one site binding model; 20°C by the methods, 25°C by the legend of Fig 6. (In general: ITC needs no label: the signal is the heat of the interaction.)

For assay [2], the target named is Drosophila Su(H) E137V (98-523) (Drosophila) (UniProt P28159). The description is as above.
Assay [3] addresses Drosophila Su(H) WT (98-523) (Drosophila) (UniProt P28159). Described as above.
Assay [4] has as its target Drosophila Su(H) (98-523) WT (Drosophila) (UniProt P28159). Briefly: ITC; cofactor (RAM peptide, Hairless or SHARP) in the syringe, Su(H) or Rbpj in the cell; 50 mM sodium phosphate, 150 mM sodium chloride; 20 injections, triplicate, one site model; 25°C by the legend, 20°C by the methods.

VLSTQRKRAHGVTWFPEGFRAPAAVMSR [Drosophila Notch RAM peptide (residues 1763-1790)]: the Ka in assay [1] stood at 1.2e+07 M⁻¹; in assay [2] it was 6.5e+06 M⁻¹; in assay [3], 5.4e+06 M⁻¹. For the same molecule, the dissociation constant (Kd) in assay [3] and in assay [4] was 187 nM each time.
